Measured values published in patent US20110091994A1, “Methods for Screening Compounds for Treating and/or Preventing an Hepatitis C Virus Infection” (priority 2008, published 2011).
Where two headings read alike, the source gives them in different places.

How the values were obtained:
[1] = target: T1, GST-tagged viral proteins (Hepatitis C virus genotype 1b, UniProt Q9WMX2); assay: Validation by co-affinity purification (CoAP); type: binding, HCV genotype 1b, isolate con1; set-up: key: +: IMAP validation; −: not validated; NA: non assayable due to default of protein expression or to cellular protein directly interacting with GST; conditions: interaction with HCV protein NS5A
T1 construct: expressed in transfected cells; host or cells: HEK-293T
Description: C. Validation of Y2H interactions by co-affinity purification assay. Nine co-AP positive assays are shown, representing: NS5A-SORBS2 (1), NS3-CALCOCO2 (2), NS5A-BIN1 (3), NS5A-MOBK1B (4), NS5A-EFEMP1 (5), NS3-PSMB9 and NS5A-PSMB9 (6), NS5A-PPPIRI3L (7), NS3-RASAL2 (8). After pull-down with GST tagged viral baits (+) or with negative control GST alone (−), cellular preys are identified with anti-Flag antibody. Anti-GST antibody identifies either GST alone or GST-tagged viral baits. Expression of cellular preys in cell lysate is controlled by anti-Flag (bottom panel). […]
A random pool of 59 IMAP Y2H interactions was chosen for CoAP assays. Cellular ORFs (interacting domains found in Y2H screens) were cloned by recombinational cloning from a pool of human cDNA library or the MGC cDNA plasmids using KOD polymerase (Toyobo) into pDONR207 (Invitrogen). After validation by sequencing, these ORFs were transferred to pCi-neo-3xFLAG gateway-converted, and HCV ORFs were transferred into pDEST27 (GST fusion in N-term). HEK-293T cells were then co-transfected (JetPei, Polyplus) by each pair of plasmid encoding interacting proteins. Controls are GST alone against 3xFLAG-tagged preys. Two days after transfection, cells were harvested and lysed (0.5% NP-40, 20 mM Tris-HCl (pH 8.0), 180 mM NaCl, 1 mM EDTA, and complete protease inhibitor cocktail). Cell lysates were cleared by centrifugation for 20 min at 13,000 rpm at 4° C. and soluble protein complexes were purified using Glutathione Sepharose 4B beads (GE Healthcare). Beads were then washed extensively four times with lysis buffer and proteins were separated on SDS-PAGE and transferred to nitrocellulose membrane. GST-tagged viral proteins and 3xFLAG-tagged cellular proteins were detected using standard immunoblotting techniques using anti-GST (Covance) and anti-FLAG M2 (Sigma) monoclonal antibodies (21).

[2] = target: T2, HCV ORFs (Gal4-DB fusions) (Hepatitis C virus genotype 1b, UniProt Q9WMX2); type: binding, HCV genotype 1b, isolate con1; conditions: human protein as prey; for IMAP Y2H IMAP2 (number of IST): HCV protein NS5A as bait
T2 construct: expressed in transfected cells; host or cells: Saccharomyces cerevisiae MAV203 (IMAP1) / AH109 (IMAP2)

[3] = target: T3, HCV proteins (Hepatitis C virus genotype 1b, UniProt Q9WMX2); assay: Validation by Y2H pairwise matrices; type: binding;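 also: yeast two-hybrid pairwise tests of interactions first found in Y2H screens of HCV bait proteins against human cDNA libraries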
T3 construct: expressed in transfected cells

[4] = system: HCV ORFs (Gal4-DB fusions); type: binding, HCV genotype 1b, isolate con1; conditions: human protein listed by gene symbol; the value names the HCV protein it interacts with
[5] = validation of interaction with HCV protein NS3
[6] = validation of interaction with HCV protein CORE
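For IMAP Y2H IMAP1 (number of IST) in this document: yeast two-hybrid screens using HCV genotype 1b proteins fused to Gal4-DB as baits against prey cDNA libraries from human spleen and foetal brain, IMAP1 via transformation and IMAP2 via mating.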
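For IMAP Y2H IMAP2 (number of IST) in this document: yeast two-hybrid screens using HCV genotype 1b proteins fused to Gal4-DB as baits against prey cDNA libraries from human spleen and foetal brain, IMAP1 via transformation and IMAP2 via mating.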
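For Interaction with viral protein in this document: yeast two-hybrid screens using HCV genotype 1b proteins fused to Gal4-DB as baits against prey cDNA libraries from human spleen and foetal brain, IMAP1 via transformation and IMAP2 via mating.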

T1 sequence (Q9WMX2 1973-2419): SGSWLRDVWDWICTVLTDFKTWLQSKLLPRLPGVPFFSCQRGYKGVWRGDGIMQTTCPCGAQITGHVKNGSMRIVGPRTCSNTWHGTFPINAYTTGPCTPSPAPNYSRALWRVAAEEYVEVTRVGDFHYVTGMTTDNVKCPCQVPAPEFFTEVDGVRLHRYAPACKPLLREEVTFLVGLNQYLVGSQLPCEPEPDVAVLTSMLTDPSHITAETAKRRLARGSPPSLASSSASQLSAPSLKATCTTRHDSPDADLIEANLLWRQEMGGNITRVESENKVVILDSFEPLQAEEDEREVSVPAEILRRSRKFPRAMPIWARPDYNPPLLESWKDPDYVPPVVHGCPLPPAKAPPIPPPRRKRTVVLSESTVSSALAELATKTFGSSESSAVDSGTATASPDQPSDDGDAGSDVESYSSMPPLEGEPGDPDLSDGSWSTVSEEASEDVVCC

| Molecule | CoAP [1] | IMAP Y2H IMAP2 (number of IST) [2] | Y2H matrices [3, 5] | IMAP Y2H IMAP1 (number of IST) ([2]; HCV protein NS3 as bait) | Interaction with viral protein [4] | Y2H matrices [3, 6] | IMAP Y2H IMAP1 (number of IST) ([2]; HCV protein CORE as bait) |
| --- | --- | --- | --- | --- | --- | --- | --- |
| VPS52 (protein, UniProt Q8N1B4 2-723, looked up) Vacuolar protein …: AAAATMAAAARELVLRAGTSDMEEEEGPLAGGPGLQEPLQLGELDITSDEFILDEVDVHIQANLEDELVKEALKTGVDLRHYSKQVELELQQIEQKSIRDYIQESENIASLHNQITACDAVLERMEQMLGAFQSDLSSISSEIRTLQEQSGAMNIRLRNRQAVRGKLGELVDGLVVPSALVTAILEAPVTEPRFLEQLQELDAKAAAVREQEARGTAACADVRGVLDRLRVKAVTKIREFILQKIYSFRKPMTNYQIPQTALLKYRFFYQFLLGNERATAKEIRDEYVETLSKIYLSYYRSYLGRLMKVQYEEVAEKDDLMGVEDTAKKGFFSKPSLRSRNTIFTLGTRGSVISPTELEAPILVPHTAQRGEQRYPFEALFRSQHYALLDNSCREYLFICEFFVVSGPAAHDLFHAVMGRTLSMTLKHLDSYLADCYDAIAVFLCIHIVLRFRNIAAKRDVPALDRYWEQVLALLWPRFELILEMNVQSVRSTDPQRLGGLDTRPHYITRRYAEFSSALVSINQTIPNERTMQLLGQLQVEVENFVLRVAAEFSSRKEQLVFLINNYDMMLGVLMERAADDSKEVESFQQLLNARTQEFIEELLSPPFGGLVAFVKEAEALIERGQAERLRGEEARVTQLIRGFGSSWKSSVESLSQDVMRSFTNFRNGTSIIQGALTQLIQLYHRFHRVLSQPQLRALPARAELINIHHLMVELKKHKPNF | + | 2 |  |  |  |  |  |
| NAP1L2 (protein, UniProt Q9ULW6 1-460, looked up) Nucleosome assembly protein …: MAESENRKELSESSQEEAGNQIMVEGLGEHLERGEDAAAGLGDDGKCGEEAAAGLGEEGENGEDTAAGSGEDGKKGGDTDEDSEADRPKGLIGYVLDTDFVESLPVKVKYRVLALKKLQTRAANLESKFLREFHDIERKFAEMYQPLLEKRRQIINAIYEPTEEECEYKSDSEDCDDEEMCHEEMYGNEEGMVHEYVDEDDGYEDYYYDYAVEEEEEEEEEDDIEATGEENKEEEDPKGIPDFWLTVLKNVDTLTPLIKKYDEPILKLLTDIKVKLSDPGEPLSFTLEFHFKPNEYFKNELLTKTYVLKSKLAYYDPHPYRGTAIEYSTGCEIDWNEGKNVTLKTIKKKQKHRIWGTIRTVTEDFPKDSFFNFFSPHGITSNGRDGNDDFLLGHNLRTYIIPRSVLFFSGDALESQQEGVVREVNDAIYDKIIYDNWMAAIEEVKACCKNLEALVEDIDR | + | 4 |  |  |  |  |  |
| C12orf41 (protein, UniProt Q9H9L4 1-492, looked up) KAT8 regulatory NSL complex …: MNRIRIHVLPTNRGRITPVPRSQEPLSCAFTHRPCSHPRLEGQEFCIKHILEDKNAPFKQCSYISTKNGKRCPNAAPKPEKKDGVSFCAEHVRRNALALHAQMKKTNPGPVGETLLCQLSSYAKTELGSQTPESSRSEASRILDEDSWSDGEQEPITVDQTWRGDPDSEADSIDSDQEDPLKHAGVYTAEEVALIMREKLIRLQSLYIDQFKRLQHLLKEKKRRYLHNRKVEHEALGSSLLTGPEGLLAKERENLKRLKCLRRYRQRYGVEALLHRQLKERRMLATDGAAQQAHTTRSSQRCLAFVDDVRCSNQSLPMTRHCLTHICQDTNQVLFKCCQGSEEVPCNKPVPVSLSEDPCCPLHFQLPPQMYKPEQVLSVPDDLEAGPMDLYLSAAELQPTESLPLEFSDDLDVVGDGMQCPPSPLLFDPSLTLEDHLVKEIAEDPVDILGQMQMAGDGCRSQGSRNSEKASAPLSQSGLATANGKPEPTSIS |  |  | + | 1 | NS3 |  |  |
| C1orf94 (protein, UniProt Q6P1W5 1-598, looked up) Uncharacterized protein …: MRGGGGCVLALGGQRGFQKERRRMASGNGLPSSSALVAKGPCALGPFPRYIWIHQDTPQDSLDKTCHEIWKRVQGLPEASQPWTSMEQLSVPVVGTLRGNELSFQEEALELSSGKDEISLLVEQEFLSLTKEHSILVEESSGELEVPGSSPEGTRELAPCILAPPLVAGSNERPRASIIVGDKLLKQKVAMPVISSRQDCDSATSTVTDILCAAEVKSSKGTEDRGRILGDSNLQVSKLLSQFPLKSTETSKVPDNKNVLDKTRVTKDFLQDNLFSGPGPKEPTGLSPFLLLPPRPPPARPDKLPELPAQKRQLPVFAKICSKPKADPAVERHHLMEWSPGTKEPKKGQGSLFLSQWPQSQKDACGEEGCCDAVGTASLTLPPKKPTCPAEKNLLYEFLGATKNPSGQPRLRNKVEVDGPELKFNAPVTVADKNNPKYTGNVFTPHFPTAMTSATLNQPLWLNLNYPPPPVFTNHSTFLQYQGLYPQQAARMPYQQALHPQLGCYSQQVMPYNPQQMGQQIFRSSYTPLLSYIPFVQPNYPYPQRTPPKMSANPRDPPLMAGDGPQYLFPQGYGFGSTSGGPLMHSPYFSSSGNGINF |  |  | + | 1 | NS3 |  |  |
| BCAN (protein, UniProt Q96GW7 23-911, looked up) Brevican core protein: DVLEGDSSEDRAFRVRIAGDAPLQGVLGGALTIPCHVHYLRPPPSRRAVLGSPRVKWTFLSRGREAEVLVARGVRVKVNEAYRFRVALPAYPASLTDVSLALSELRPNDSGIYRCEVQHGIDDSSDAVEVKVKGVVFLYREGSARYAFSFSGAQEACARIGAHIATPEQLYAAYLGGYEQCDAGWLSDQTVRYPIQTPREACYGDMDGFPGVRNYGVVDPDDLYDVYCYAEDLNGELFLGDPPEKLTLEEARAYCQERGAEIATTGQLYAAWDGGLDHCSPGWLADGSVRYPIVTPSQRCGGGLPGVKTLFLFPNQTGFPNKHSRFNVYCFRDSAQPSAIPEASNPASNPASDGLEAIVTVTETLEELQLPQEATESESRGAIYSIPIMEDGGGGSSTPEDPAEAPRTLLEFETQSMVPPTGFSEEEGKALEEEEKYEDEEEKEEEEEEEEVEDEALWAWPSELSSPGPEASLPTEPAAQEESLSQAPARAVLQPGASPLPDGESEASRPPRVHGPPTETLPTPRERNLASPSPSTLVEAREVGEATGGPELSGVPRGESEETGSSEGAPSLLPATRAPEGTRELEAPSEDNSGRTAPAGTSVQAQPVLPTDSASRGGVAVVPASGDCVPSPCHNGGTCLEEEEGVRCLCLPGYGGDLCDVGLRFCNPGWDAFQGACYKHFSTRRSWEEAETQCRMYGAHLASISTPEEQDFINNRYREYQWIGLNDRTIEGDFLWSDGVPLLYENWNPGQPDSYFLSGENCVVMVWHDQGQWSDVPCNYHLSYTCKMGLVSCGPPPELPLAQVFGRPRLRYEVDTVLRYRCREGLAQRNLPLIRCQENGRWEAPQISCVPRRPARALHPEEDPEGRQGRLLGRWKALLIPPSSPMPGP |  |  | + | 2 | NS3 |  |  |
| BCAR1 (protein, UniProt P56945 1-870, looked up) Breast cancer anti-estrogen …: MNHLNVLAKALYDNVAESPDELSFRKGDIMTVLEQDTQGLDGWWLCSLHGRQGIVPGNRLKILVGMYDKKPAGPGPGPPATPAQPQPGLHAPAPPASQYTPMLPNTYQPQPDSVYLVPTPSKAQQGLYQVPGPSPQFQSPPAKQTSTFSKQTPHHPFPSPATDLYQVPPGPGGPAQDIYQVPPSAGMGHDIYQVPPSMDTRSWEGTKPPAKVVVPTRVGQGYVYEAAQPEQDEYDIPRHLLAPGPQDIYDVPPVRGLLPSQYGQEVYDTPPMAVKGPNGRDPLLEVYDVPPSVEKGLPPSNHHAVYDVPPSVSKDVPDGPLLREETYDVPPAFAKAKPFDPARTPLVLAAPPPDSPPAEDVYDVPPPAPDLYDVPPGLRRPGPGTLYDVPRERVLPPEVADGGVVDSGVYAVPPPAEREAPAEGKRLSASSTGSTRSSQSASSLEVAGPGREPLELEVAVEALARLQQGVSATVAHLLDLAGSAGATGSWRSPSEPQEPLVQDLQAAVAAVQSAVHELLEFARSAVGNAAHTSDRALHAKLSRQLQKMEDVHQTLVAHGQALDAGRGGSGATLEDLDRLVACSRAVPEDAKQLASFLHGNASLLFRRTKATAPGPEGGGTLHPNPTDKTSSIQSRPLPSPPKFTSQDSPDGQYENSEGGWMEDYDYVHLQGKEEFEKTQKELLEKGSITRQGKSQLELQQLKQFERLEQEVSRPIDHDLANWTPAQPLAPGRTGGLGPSDRQLLLFYLEQCEANLTTLTNAVDAFFTAVATNQPPKIFVAHSKFVILSAHKLVFIGDTLSRQAKAADVRSQVTHYSNLLCDLLRGIVATTKAAALQYPSPSAAQDMVERVKELGHSTQQFRRVLGQLAAA |  |  |  |  | CORE | + | 1 |
| CD68 (protein, UniProt P34810 22-354, looked up) Macrosialin: NDCPHKKSATLLPSFTVTPTVTESTGTTSHRTTKSHKTTTHRTTTTGTTSHGPTTATHNPTTTSHGNVTVHPTSNSTATSQGPSTATHSPATTSHGNATVHPTSNSTATSPGFTSSAHPEPPPPSPSPSPTSKETIGDYTWTNGSQPCVHLQAQIQIRVMYTTQGGGEAWGISVLNPNKTKVQGSCEGAHPHLLLSFPYGHLSFGFMQDLQQKVVYLSYMAVEYNVSFPHAAQWTFSAQNASLRDLQAPLGQSFSCSNSSIILSPAVHLDLLSLRLQAAQLPHTGVFGQSFSCPSDRSILLPLIIGLILLGLLALVLIAFCIIRRRPSAYQAL |  |  |  |  | CORE | + | 1 |
